Substrate in series [1]: NCCC=O
Put plainly: spectrophotometric initial velocity, fit to substrate-inhibition equation. In kind it is biochemical, Spinacia oleracea. The note with it: 0.2 mM NAD+, 50 mM HEPES-KOH pH 8.0, 0.1 mM EDTA, 30 °C, apparent. From the text: spectrophotometric initial velocity, fit to substrate-inhibition equation on SoBADH

Substrate in series [2]: C[N+](C)(C)CC=O
Put plainly: purified protein. The conditions noted are these: 0.2 mM NAD+, 50 mM HEPES-KOH pH 8.0, 0.1 mM EDTA, 30 °C, apparent.

Substrate in series [3]: NC(=O)c1ccc[n+]([C@@H]2O[C@H](COP(=O)(O)OP(=O)(O)OC[C@H]3O[C@@H](n4cnc5c(N)ncnc54)[C@H](O)[C@@H]3O)[C@@H](O)[C@H]2O)c1
As to the kind of experiment: spectrophotometric initial velocity, Michaelis-Menten fit. The conditions noted are these: fixed BAL at least 10x its Km, 50 mM HEPES-KOH pH 8.0, 0.1 mM EDTA, 30 °C, apparent, varied: cofactor. In kind it is biochemical, Spinacia oleracea. The text has this: spectrophotometric initial velocity, Michaelis-Menten fit on SoBADH

Experimental findings from publication PMC4046141, “Exploring the evolutionary route of the acquisition of betaine aldehyde dehydrogenase activity by plant ALDH10 enzymes: implications for the synthesis of the osmoprotectant glycine betaine” (BMC Plant Biology, 2014) are described below.

B1: SoBADH (Spinacia oleracea; A441F) (protein)
chain: MAFPIPARQLFIDGEWREPIKKNRIPVINPSTEEIIGDIPAATAEDVEVAVVAARRAFRRNNWSATSGAHRATYLRAIAAKITEKKDHFVKLETIDSGKPFDEAVLDIDDVASCFEYFAGQAEALDGKQKAPVTLPMERFKSHVLRQPLGVVGLISPWNYPLLMATWKIAPALAAGCTAVLKPSELASVTCLEFGEVCNEVGLPPGVLNILTGLGPDAGAPLVSHPDVDKIAFTGSSATGSKVMASAAQLVKPVTLELGGKSPIVVFEDVDIDKVVEWTIFGCFWTNGQICSATSRLLVHESIAAEFVDKLVKWTKNIKISDPFEEGCRLGPVISKGQYDKIMKFISTAKSEGATILYGGSRPEHLKKGYYIEPTIVTDISTSMQIWKEEVFGPVLCVKTFSSEDEAIALANDTEYGLAAAVFSNDLERCERITKALEVGFVWVNCSQPCFVQAPWGGIKRSGFGRELGEWGIQNYLNIKQVTQDISDEPWGWYKSP
notes: native homodimer
Usually Km stands for the substrate concentration at which the rate is half of its maximum. Usually kcat stands for the number of substrate molecules converted per active site and unit of time at saturation. As a reminder, the kcat/Km is the turnover number divided by the Michaelis constant. In the case of B1, in series [1], the Km is 3.7 ± 0.0 µM, the turnover number (kcat) amounted to 0.34 ± 0.04 s⁻¹ and the catalytic efficiency (kcat/Km) worked out at 92000 ± 11000 M⁻¹ s⁻¹. Further, in series [2], the Michaelis constant (Km) turned out to be 605 ± 26 µM, the kcat was 0.29 s⁻¹ and the catalytic efficiency (kcat/Km) was 480 M⁻¹ s⁻¹.

B2: SoBADH (Spinacia oleracea; A441V) (protein)
chain: MAFPIPARQLFIDGEWREPIKKNRIPVINPSTEEIIGDIPAATAEDVEVAVVAARRAFRRNNWSATSGAHRATYLRAIAAKITEKKDHFVKLETIDSGKPFDEAVLDIDDVASCFEYFAGQAEALDGKQKAPVTLPMERFKSHVLRQPLGVVGLISPWNYPLLMATWKIAPALAAGCTAVLKPSELASVTCLEFGEVCNEVGLPPGVLNILTGLGPDAGAPLVSHPDVDKIAFTGSSATGSKVMASAAQLVKPVTLELGGKSPIVVFEDVDIDKVVEWTIFGCFWTNGQICSATSRLLVHESIAAEFVDKLVKWTKNIKISDPFEEGCRLGPVISKGQYDKIMKFISTAKSEGATILYGGSRPEHLKKGYYIEPTIVTDISTSMQIWKEEVFGPVLCVKTFSSEDEAIALANDTEYGLAAAVFSNDLERCERITKALEVGVVWVNCSQPCFVQAPWGGIKRSGFGRELGEWGIQNYLNIKQVTQDISDEPWGWYKSP
notes: native homodimer
B2: in series [3], the Michaelis-Menten constant (Km) was found to be 6.4 ± 0.5 µM, the kcat was found to be 0.51 s⁻¹ and the kcat/Km was found to be 80000 ± 5000 M⁻¹ s⁻¹. In addition, in series [1], the Michaelis-Menten constant (Km) was found to be 1.1 ± 0.3 µM, the kcat came out at 0.52 ± 0.1 s⁻¹ and the catalytic efficiency (kcat/Km) worked out at 473000 ± 216000 M⁻¹ s⁻¹. Moreover, in series [2], the Km came to 512 ± 79 µM, the kcat turned out to be 0.54 s⁻¹ and the specificity constant (kcat/Km) worked out at 1100 M⁻¹ s⁻¹.

B3: SoBADH (Spinacia oleracea) (protein)
chain: MAFPIPARQLFIDGEWREPIKKNRIPVINPSTEEIIGDIPAATAEDVEVAVVAARRAFRRNNWSATSGAHRATYLRAIAAKITEKKDHFVKLETIDSGKPFDEAVLDIDDVASCFEYFAGQAEALDGKQKAPVTLPMERFKSHVLRQPLGVVGLISPWNYPLLMATWKIAPALAAGCTAVLKPSELASVTCLEFGEVCNEVGLPPGVLNILTGLGPDAGAPLVSHPDVDKIAFTGSSATGSKVMASAAQLVKPVTLELGGKSPIVVFEDVDIDKVVEWTIFGCFWTNGQICSATSRLLVHESIAAEFVDKLVKWTKNIKISDPFEEGCRLGPVISKGQYDKIMKFISTAKSEGATILYGGSRPEHLKKGYYIEPTIVTDISTSMQIWKEEVFGPVLCVKTFSSEDEAIALANDTEYGLAAAVFSNDLERCERITKALEVGAVWVNCSQPCFVQAPWGGIKRSGFGRELGEWGIQNYLNIKQVTQDISDEPWGWYKSP
notes: native homodimer
In the case of B3, the Michaelis constant (Km) in series [3] came to 22 ± 2 µM; in series [1], 3.9 ± 0.1 µM; in series [2], 98 ± 15 µM. Moreover, the kcat worked out at 4.25 ± 0.16 s⁻¹ in series [3], 0.99 ± 0.04 s⁻¹ in series [1] and 3.36 s⁻¹ in series [2]. Further, the kcat/Km was 195000 ± 8000 M⁻¹ s⁻¹ in series [3], 256000 ± 5000 M⁻¹ s⁻¹ in series [1] and 35000 M⁻¹ s⁻¹ in series [2].

B4: SoBADH (Spinacia oleracea; A441S) (protein)
chain: MAFPIPARQLFIDGEWREPIKKNRIPVINPSTEEIIGDIPAATAEDVEVAVVAARRAFRRNNWSATSGAHRATYLRAIAAKITEKKDHFVKLETIDSGKPFDEAVLDIDDVASCFEYFAGQAEALDGKQKAPVTLPMERFKSHVLRQPLGVVGLISPWNYPLLMATWKIAPALAAGCTAVLKPSELASVTCLEFGEVCNEVGLPPGVLNILTGLGPDAGAPLVSHPDVDKIAFTGSSATGSKVMASAAQLVKPVTLELGGKSPIVVFEDVDIDKVVEWTIFGCFWTNGQICSATSRLLVHESIAAEFVDKLVKWTKNIKISDPFEEGCRLGPVISKGQYDKIMKFISTAKSEGATILYGGSRPEHLKKGYYIEPTIVTDISTSMQIWKEEVFGPVLCVKTFSSEDEAIALANDTEYGLAAAVFSNDLERCERITKALEVGSVWVNCSQPCFVQAPWGGIKRSGFGRELGEWGIQNYLNIKQVTQDISDEPWGWYKSP
notes: native homodimer
With B4, the Km amounted to 29 ± 3 µM in series [3], 2.0 ± 0.5 µM in series [1] and 119 ± 8 µM in series [2]. Also, the turnover number (kcat) in series [3] turned out to be 3.27 ± 0.18 s⁻¹; in series [1], 1.12 s⁻¹; in series [2] it was 3.29 s⁻¹. Besides, the kcat/Km stood at 114000 ± 20000 M⁻¹ s⁻¹ in series [3], 550000 ± 142000 M⁻¹ s⁻¹ in series [1] and 28000 M⁻¹ s⁻¹ in series [2].

B5: SoBADH (Spinacia oleracea; A441T) (protein)
chain: MAFPIPARQLFIDGEWREPIKKNRIPVINPSTEEIIGDIPAATAEDVEVAVVAARRAFRRNNWSATSGAHRATYLRAIAAKITEKKDHFVKLETIDSGKPFDEAVLDIDDVASCFEYFAGQAEALDGKQKAPVTLPMERFKSHVLRQPLGVVGLISPWNYPLLMATWKIAPALAAGCTAVLKPSELASVTCLEFGEVCNEVGLPPGVLNILTGLGPDAGAPLVSHPDVDKIAFTGSSATGSKVMASAAQLVKPVTLELGGKSPIVVFEDVDIDKVVEWTIFGCFWTNGQICSATSRLLVHESIAAEFVDKLVKWTKNIKISDPFEEGCRLGPVISKGQYDKIMKFISTAKSEGATILYGGSRPEHLKKGYYIEPTIVTDISTSMQIWKEEVFGPVLCVKTFSSEDEAIALANDTEYGLAAAVFSNDLERCERITKALEVGTVWVNCSQPCFVQAPWGGIKRSGFGRELGEWGIQNYLNIKQVTQDISDEPWGWYKSP
notes: native homodimer
For the protein B5, in series [1], the Michaelis-Menten constant (Km) worked out at 4.6 ± 0.5 µM, the kcat came out at 1.5 ± 0.12 s⁻¹ and the catalytic efficiency (kcat/Km) amounted to 326000 ± 13000 M⁻¹ s⁻¹. In addition, in series [2], the Michaelis-Menten constant (Km) was determined as 180 ± 6 µM, the catalytic constant (kcat) was 2.64 s⁻¹ and the catalytic efficiency (kcat/Km) is 15000 M⁻¹ s⁻¹.
